{"source": "paper PMC8106670", "key": {"[1]": {"molecular_target": "^HisBamA_(N427C) (E. coli) (UniProt P0A940)", "assay": "cross-linking"}, "[2]": {"molecular_target": "^HisBamA_(T809C) (E. coli) (UniProt P0A940)", "assay": "cross-linking"}}}
{"substance": "^MBP−76EspP_(T984C) (from UniProt Q7BSW5 948-1300)", "values": [{"measurement": "percent disulfide-bonded", "setting": "[1]", "value": 40, "unit": "%"}, {"measurement": "percent disulfide-bonded", "setting": "[2]", "value": 50, "unit": "%"}]}
